Where no end group is shown, it is not given here. The star is where a group is joined. Biotin = O=C1N[C@H]2[C@H](CS[C@H]2CCCCC(=O)*)N1

The target in the experiment is T1, carrier-free recombinant human Netrin-1-His (human, UniProt O95631 25-604).
T1 construct: also called rNetrin-1-His; rNetrin-1
Description: pull-down; Pierce Pull-Down Biotinylated Protein:Protein Interaction Kit; 150 μL of 0.5 mg/mL biotinylated peptide on streptavidin gel; 100 μL of 1 ng/μL recombinant LHBs with 0, 1, 2 or 4 ng/μL rNetrin-1-His; western blot. Particulars: both partners purified. In general terms: Immunoblotting shows a protein as a band on a membrane.

Consider Biotin-NSKMYLKTRA (also called C-terminal HBS of LIPG) [biotinylated LIPG-CTD HBS peptide (amino acids 331–340)], for which the binding result is on record as “binds”.

The record behind these values is article PMC12711026 (PLOS Pathogens, 2025).
